# Reference: IntAct's records for PubMed 32637409
# B1: Mitochondrial Rho GTPase 1 (Homo sapiens), Q8IXI2 (parent)
# chain: MKKDVRILLVGEPRVGKTSLIMSLVSEEFPEEVPPRAEEITIPADVTPERVPTHIVDYSEAEQSDEQLHQEISQANVICIVYAVNNKHSIDKVTSRWIPLINERTDKDSRLPLILVGNKSDLVEYSSMETILPIMNQYTEIETCVECSAKNLKNISELFYYAQKAVLHPTGPLYCPEEKEMKPACIKALTRIFKISDQDNDGTLNDAELNFFQRICFNTPLAPQALEDVKNVVRKHISDGVADSGLTLKGFLFLHTLFIQRGRHETTWTVLRRFGYDDDLDLTPEYLFPLLKIPPDCTTELNHHAYLFLQSTFDKHDLDRDCALSPDELKDLFKVFPYIPWGPDVNNTVCTNERGWITYQGFLSQWTLTTYLDVQRCLEYLGYLGYSILTEQESQASAVTVTRDKKIDLQKKQTQRNVFRCNVIGVKNCGKSGVLQALLGRNLMRQKKIREDHKSYYAINTVYVYGQEKYLLLHDISESEFLTEAEIICDVVCLVYDVSNPKSFEYCARIFKQHFMDSRIPCLIVAAKSDLHEVKQEYSISPTDFCRKHKMPPPQAFTCNTADAPSKDIFVKLTTMAMYPHVTQADLKSSTFWLRASFGATVFAVLGFAMYKALLKQR
# partner: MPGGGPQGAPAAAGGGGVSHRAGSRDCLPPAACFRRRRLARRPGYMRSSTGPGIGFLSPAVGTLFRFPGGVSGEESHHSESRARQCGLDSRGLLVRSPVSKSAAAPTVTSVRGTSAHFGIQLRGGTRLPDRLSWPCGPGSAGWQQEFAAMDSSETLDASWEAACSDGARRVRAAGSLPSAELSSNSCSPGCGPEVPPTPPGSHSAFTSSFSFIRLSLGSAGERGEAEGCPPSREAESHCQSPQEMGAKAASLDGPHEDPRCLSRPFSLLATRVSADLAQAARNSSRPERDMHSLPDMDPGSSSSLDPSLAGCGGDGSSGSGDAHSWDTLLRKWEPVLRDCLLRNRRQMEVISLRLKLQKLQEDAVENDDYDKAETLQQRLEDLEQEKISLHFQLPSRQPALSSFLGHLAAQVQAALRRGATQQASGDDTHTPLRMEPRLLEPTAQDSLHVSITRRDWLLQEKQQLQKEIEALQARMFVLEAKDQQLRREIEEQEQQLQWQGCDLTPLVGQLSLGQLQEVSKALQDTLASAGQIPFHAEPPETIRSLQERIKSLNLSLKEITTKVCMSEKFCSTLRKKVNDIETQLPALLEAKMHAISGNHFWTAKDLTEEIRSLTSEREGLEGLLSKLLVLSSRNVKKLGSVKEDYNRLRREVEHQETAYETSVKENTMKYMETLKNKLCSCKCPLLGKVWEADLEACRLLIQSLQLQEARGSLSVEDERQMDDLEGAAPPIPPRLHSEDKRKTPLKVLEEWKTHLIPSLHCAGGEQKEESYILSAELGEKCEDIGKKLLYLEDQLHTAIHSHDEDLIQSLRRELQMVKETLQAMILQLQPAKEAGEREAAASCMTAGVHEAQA
# Variants of: B1
# Settings: with disc1_human DISC1, Q9NRI5
row,Variant,effect of a mutation on the interaction
1,T18N,with no effect
2,P13V,increasing interaction
